Measured values taken from patent publication US20220049021A1.

T1: mouse FLT3 on M1 cells (mouse) (UniProt Q00342)
T1 sequence (looked up): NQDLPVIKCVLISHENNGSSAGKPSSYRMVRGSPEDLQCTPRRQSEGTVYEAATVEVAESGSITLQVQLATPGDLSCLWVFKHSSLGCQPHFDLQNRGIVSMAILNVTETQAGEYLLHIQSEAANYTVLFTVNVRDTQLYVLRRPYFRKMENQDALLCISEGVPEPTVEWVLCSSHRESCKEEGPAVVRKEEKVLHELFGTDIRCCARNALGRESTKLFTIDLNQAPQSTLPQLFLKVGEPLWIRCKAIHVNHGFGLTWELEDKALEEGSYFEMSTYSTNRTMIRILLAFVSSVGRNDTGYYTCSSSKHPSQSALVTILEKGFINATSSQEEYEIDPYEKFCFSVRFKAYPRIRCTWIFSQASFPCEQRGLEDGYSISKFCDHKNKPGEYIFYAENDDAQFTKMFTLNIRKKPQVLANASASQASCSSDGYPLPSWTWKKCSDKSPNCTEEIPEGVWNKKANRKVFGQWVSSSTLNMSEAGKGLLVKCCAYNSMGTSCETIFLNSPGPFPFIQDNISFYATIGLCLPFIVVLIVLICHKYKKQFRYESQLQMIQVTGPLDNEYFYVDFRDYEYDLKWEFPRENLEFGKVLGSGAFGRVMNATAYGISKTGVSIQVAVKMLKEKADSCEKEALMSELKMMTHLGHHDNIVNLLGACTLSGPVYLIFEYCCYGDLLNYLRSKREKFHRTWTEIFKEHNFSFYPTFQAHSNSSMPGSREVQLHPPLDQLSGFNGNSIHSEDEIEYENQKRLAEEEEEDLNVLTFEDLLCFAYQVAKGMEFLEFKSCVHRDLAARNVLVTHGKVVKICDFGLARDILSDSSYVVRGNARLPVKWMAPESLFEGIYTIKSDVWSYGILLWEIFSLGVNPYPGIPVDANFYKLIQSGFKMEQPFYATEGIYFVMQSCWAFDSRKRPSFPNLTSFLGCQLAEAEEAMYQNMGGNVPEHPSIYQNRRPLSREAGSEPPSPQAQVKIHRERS

T2: human FLT3 on AML5 cells (human) (UniProt P36888)
T2 sequence (looked up): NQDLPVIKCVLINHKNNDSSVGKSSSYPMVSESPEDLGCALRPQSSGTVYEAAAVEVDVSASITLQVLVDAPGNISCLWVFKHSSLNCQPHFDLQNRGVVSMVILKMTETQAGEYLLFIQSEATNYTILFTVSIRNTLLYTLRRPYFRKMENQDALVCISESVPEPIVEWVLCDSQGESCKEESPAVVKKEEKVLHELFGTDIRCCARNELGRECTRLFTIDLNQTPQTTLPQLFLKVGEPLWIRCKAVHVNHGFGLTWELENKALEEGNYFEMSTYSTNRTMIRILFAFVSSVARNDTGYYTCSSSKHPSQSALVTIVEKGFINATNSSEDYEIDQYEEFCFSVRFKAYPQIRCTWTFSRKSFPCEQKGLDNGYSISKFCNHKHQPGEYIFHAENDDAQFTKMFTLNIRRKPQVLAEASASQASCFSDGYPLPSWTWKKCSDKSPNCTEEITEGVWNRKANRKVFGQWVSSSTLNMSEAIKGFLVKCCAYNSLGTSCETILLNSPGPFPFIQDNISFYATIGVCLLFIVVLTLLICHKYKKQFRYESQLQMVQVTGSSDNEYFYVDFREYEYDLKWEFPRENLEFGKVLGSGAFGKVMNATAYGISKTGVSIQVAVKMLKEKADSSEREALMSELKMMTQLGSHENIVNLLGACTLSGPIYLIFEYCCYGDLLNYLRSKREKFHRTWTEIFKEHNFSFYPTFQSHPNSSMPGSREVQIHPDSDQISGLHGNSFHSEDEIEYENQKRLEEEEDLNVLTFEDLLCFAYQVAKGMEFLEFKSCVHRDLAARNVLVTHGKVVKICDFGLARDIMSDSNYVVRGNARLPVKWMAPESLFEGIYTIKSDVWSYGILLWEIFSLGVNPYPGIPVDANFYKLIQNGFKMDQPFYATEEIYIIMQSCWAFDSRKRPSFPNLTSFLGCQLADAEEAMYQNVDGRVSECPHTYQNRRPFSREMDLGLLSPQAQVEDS


Tests used:
[1] = target: T1, mouse FLT3 on M1 cells (mouse); experiment: cell-based or functional assay
[2] = target: T2, human FLT3 on AML5 cells (human); experiment: cell-based or functional assay

Row | EC50(nM), M1 IL-6 release assay [1] [nM] | Emax(pg/ml), M1 IL-6 release assay [1] [pg/mL] | EC50 (nM), Inducing Proliferation of AML5 Cells [2] [nM] | Binder
1 | 0.117 | 517 |  | recombinant human FLT3-ligand human IgG1 fusion protein (Fc fusion, UniProt P49771 27-185, looked up, not shown: a dimerising Fc or GST) TQDCSFQHSPISSDFAVKIRELSDYLLQDYPVTVASNLQDEELCGGLWRLVLAQRWMERLKTVAGSKMQGLLERVNTEIHFVTKCAFQPPPSCLRFVQTNISRLLQETSEQLVALKPWITRQNFSRCLELQCQPDSSTLPPPWSPRPLEATAPTAPQPP
2 | 0.024 | 392 | 0.039 | recombinant human FLT3-ligand (ligand, UniProt P49771 27-185, looked up) TQDCSFQHSPISSDFAVKIRELSDYLLQDYPVTVASNLQDEELCGGLWRLVLAQRWMERLKTVAGSKMQGLLERVNTEIHFVTKCAFQPPPSCLRFVQTNISRLLQETSEQLVALKPWITRQNFSRCLELQCQPDSSTLPPPWSPRPLEATAPTAPQPP
3 |  |  | 0.171 | mouse FLT3-ligand mouse IgG2a (LALA-PG) fusion protein (SEQ ID NO:19) (Fc fusion) TPDCYFSHSPISSNFKVKFRELTDHLLKDYPVTVAVNLQDEKHCKALWSLFLAQRWIEQLKTVAGSKMQTLLEDVNTEIHFVTSCTFQPLPECLRFVQTNISHLLKDTCTQLLALKPCIGKACQNFSRCLEVQCQPDSSTLLPPRSPIALEATELPEPRGPTIKPCPPCKCPAPNAAGGPSVFIFPPKIKDVLMISLSPIVTCVVVDVSEDDPDVQISWFVNNVEVHTAQTQTHREDYNSTLRVVSALPIQHQDWMSGKEFKCKVNNKDLGAPIERTISKPKGSVRAPQVYVLPPPEEEMTKKQVTLTCMVTDFMPEDIYVEWTNNGKTELNYKNTEPVLDSDGSYFMYSKLRVEKKNWVERNSYSCSVVHEGLHNHHTTKSFSRTPGK
4 |  |  | 0.115 | mouse FLT3-ligand mouse IgG2a (C136S LALA-PG) fusion protein (SEQ ID NO:20) (Fc fusion) TPDCYFSHSPISSNFKVKFRELTDHLLKDYPVTVAVNLQDEKHCKALWSLFLAQRWIEQLKTVAGSKMQTLLEDVNTEIHFVTSCTFQPLPECLRFVQTNISHLLKDTSTQLLALKPCIGKACQNFSRCLEVQCQPDSSTLLPPRSPIALEATELPEPRGPTIKPCPPCKCPAPNAAGGPSVFIFPPKIKDVLMISLSPIVTCVVVDVSEDDPDVQISWFVNNVEVHTAQTQTHREDYNSTLRVVSALPIQHQDWMSGKEFKCKVNNKDLGAPIERTISKPKGSVRAPQVYVLPPPEEEMTKKQVTLTCMVTDFMPEDIYVEWTNNGKTELNYKNTEPVLDSDGSYFMYSKLRVEKKNWVERNSYSCSVVHEGLHNHHTTKSFSRTPGK
